Laboratory results: patent publication US20080254507A1

Biological target: envelope glycoprotein derived from T-tropic HIV-1 (gp120, gp41) (HIV-1 (T-tropic))
Assay: cell-based or functional assay

Row | Substance | concentration that inhibit 50% of syncytium formation (IC50)
1 | His-tagged actinohivin monomer fusion protein (from UniProt Q9KWN0 47-160) | 0.58
2 | His-tagged actinohivin dimer fusion protein (from UniProt Q9KWN0 47-160) | 0.235
